This is an account of results in publication PMC9672406.

B1: ScMqnA (chorismate dehydratase MqnA) (Streptomyces coelicolor A3(2)) (protein)
chain: MDNSRTRPRVGHIQFLNCLPLYWGLARTGTLLDFELTKDTPEKLSEQLVRGDLDIGPVTLVEFLKNADDLVAFPDIAVGCDGPVMSCVIVSQVPLDRLDGARVALGSTSRTSVRLAQLLLSERFGVQPDYYTCPPDLSLMMQEADAAVLIGDAALRANMIDGPRYGLDVHDLGALWKEWTGLPFVFAVWAARRDYAEREPVITRKVHEAFLASRNLSLEEVEKVAEQAARWEAFDEDTLAKYFTTLDFRFGAPQLEAVTEFARRVGPTTGFPADVKVELLKP
B2: ScMqnA (chorismate dehydratase MqnA) (Streptomyces coelicolor A3(2); N17A) (protein)
chain: MDNSRTRPRVGHIQFLACLPLYWGLARTGTLLDFELTKDTPEKLSEQLVRGDLDIGPVTLVEFLKNADDLVAFPDIAVGCDGPVMSCVIVSQVPLDRLDGARVALGSTSRTSVRLAQLLLSERFGVQPDYYTCPPDLSLMMQEADAAVLIGDAALRANMIDGPRYGLDVHDLGALWKEWTGLPFVFAVWAARRDYAEREPVITRKVHEAFLASRNLSLEEVEKVAEQAARWEAFDEDTLAKYFTTLDFRFGAPQLEAVTEFARRVGPTTGFPADVKVELLKP
B3: ScMqnA (chorismate dehydratase MqnA) (Streptomyces coelicolor A3(2); Y242F) (protein)
chain: MDNSRTRPRVGHIQFLNCLPLYWGLARTGTLLDFELTKDTPEKLSEQLVRGDLDIGPVTLVEFLKNADDLVAFPDIAVGCDGPVMSCVIVSQVPLDRLDGARVALGSTSRTSVRLAQLLLSERFGVQPDYYTCPPDLSLMMQEADAAVLIGDAALRANMIDGPRYGLDVHDLGALWKEWTGLPFVFAVWAARRDYAEREPVITRKVHEAFLASRNLSLEEVEKVAEQAARWEAFDEDTLAKFFTTLDFRFGAPQLEAVTEFARRVGPTTGFPADVKVELLKP

Substrate in this series: C=C(O[C@@H]1C=C(C(=O)O)C=C[C@H]1O)C(=O)O
Description: purified protein. To be noted: 100 mM Tris/HCl pH 7.5, 22 °C, 5 min, 0.05 μM enzyme.
B1: the Km was 121 ± 38 µM, the Vmax was 0.458 µmol/min/mg and the kcat was 0.24 ± 0.02 s⁻¹.

Consider B2, for which the Km stood at 257 ± 87 µM, the maximal velocity (Vmax) came to 0.473 µmol/min/mg and the catalytic constant (kcat) came to 0.25 ± 0.02 s⁻¹.

Consider B3, for which the Michaelis-Menten constant (Km) was 377 ± 106 µM, the Vmax came out at 1.06 µmol/min/mg and the kcat turned out to be 0.56 ± 0.06 s⁻¹.

A word on the Km: it is the concentration of substrate that gives half-maximal velocity. By Vmax is commonly meant the rate approached at saturating substrate. As usually defined, the kcat is the maximal rate divided by the concentration of active sites.
